According to article PMC2756588:

T1: Hof1, Q05080
T1 sequence (Q05080 590-669, looked up): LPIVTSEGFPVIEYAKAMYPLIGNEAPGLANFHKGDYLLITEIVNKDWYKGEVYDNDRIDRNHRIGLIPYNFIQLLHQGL

T2: Sla1-3, P32790
T2 sequence (P32790 344-424, looked up): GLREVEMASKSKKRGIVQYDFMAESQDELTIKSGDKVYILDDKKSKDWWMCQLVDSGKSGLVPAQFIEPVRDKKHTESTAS

T3: Nbp2, Q12163
T3 sequence (Q12163 103-180, looked up): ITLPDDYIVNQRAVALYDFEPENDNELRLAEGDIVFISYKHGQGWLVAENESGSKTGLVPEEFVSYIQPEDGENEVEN

T4: Cdc25, P04821
T4 sequence (P04821 50-136, looked up): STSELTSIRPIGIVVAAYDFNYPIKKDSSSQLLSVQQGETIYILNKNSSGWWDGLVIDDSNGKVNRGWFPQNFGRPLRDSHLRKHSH

T5: Lsb4, P32793
T5 sequence (P32793 402-468, looked up): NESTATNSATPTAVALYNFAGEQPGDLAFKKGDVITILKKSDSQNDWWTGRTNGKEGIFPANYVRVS

T6: Bzz1-2, P38822
T6 sequence (P38822 568-633, looked up): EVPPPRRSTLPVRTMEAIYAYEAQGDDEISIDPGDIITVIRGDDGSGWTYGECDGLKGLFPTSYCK

T7: Hse1, P38753
T7 sequence (P38753 208-285, looked up): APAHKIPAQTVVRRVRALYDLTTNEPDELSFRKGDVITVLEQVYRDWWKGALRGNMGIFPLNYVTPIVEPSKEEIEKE

T8: Bbc1, P47068
T8 sequence (P47068 1-78, looked up): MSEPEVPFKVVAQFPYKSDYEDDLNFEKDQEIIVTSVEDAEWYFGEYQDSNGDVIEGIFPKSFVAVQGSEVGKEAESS

T9: Myo5, Q04439
T9 sequence (Q04439 1072-1160, looked up): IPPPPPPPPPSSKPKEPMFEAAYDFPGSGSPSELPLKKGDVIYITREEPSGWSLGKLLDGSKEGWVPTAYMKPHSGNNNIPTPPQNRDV

T10: Cyk3, Q07533
T10 sequence (Q07533 1-83, looked up): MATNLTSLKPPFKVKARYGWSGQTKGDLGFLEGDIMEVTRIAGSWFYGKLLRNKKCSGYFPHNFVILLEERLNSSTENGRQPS

T11: Pex13, P80667
T11 sequence (P80667 295-386, looked up): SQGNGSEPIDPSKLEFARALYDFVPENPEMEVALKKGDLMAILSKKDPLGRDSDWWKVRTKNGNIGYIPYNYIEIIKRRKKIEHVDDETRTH

T12: Bud14, P27637
T12 sequence (P27637 247-328, looked up): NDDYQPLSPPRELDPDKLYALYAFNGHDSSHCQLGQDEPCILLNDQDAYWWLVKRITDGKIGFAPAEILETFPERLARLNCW

T13: Lsb1, P53281
T13 sequence (P53281 45-122, looked up): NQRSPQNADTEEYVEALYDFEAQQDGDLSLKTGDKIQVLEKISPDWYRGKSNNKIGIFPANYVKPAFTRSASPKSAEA

T14: Abp1, P15891
T14 sequence (P15891 535-592, looked up): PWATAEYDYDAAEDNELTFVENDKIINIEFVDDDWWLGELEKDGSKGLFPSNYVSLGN

T15: Fus1, P11710
T15 sequence (P11710 432-512, looked up): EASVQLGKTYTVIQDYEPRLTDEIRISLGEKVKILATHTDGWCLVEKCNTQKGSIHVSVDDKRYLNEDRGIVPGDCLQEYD

T16: Lsb3, P43603
T16 sequence (P43603 385-451, looked up): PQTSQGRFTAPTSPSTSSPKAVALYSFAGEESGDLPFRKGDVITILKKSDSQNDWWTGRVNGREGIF

T17: Pin3, Q06449
T17 sequence (Q06449 53-122, looked up): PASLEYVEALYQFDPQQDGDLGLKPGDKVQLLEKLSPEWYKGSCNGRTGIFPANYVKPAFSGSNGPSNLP

T18: Boi2, P39969
T18 sequence (P39969 32-116, looked up): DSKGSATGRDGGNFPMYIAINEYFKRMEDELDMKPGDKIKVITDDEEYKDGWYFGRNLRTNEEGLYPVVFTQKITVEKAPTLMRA

T19: Sla1-2, P32790
T19 sequence (P32790 60-140, looked up): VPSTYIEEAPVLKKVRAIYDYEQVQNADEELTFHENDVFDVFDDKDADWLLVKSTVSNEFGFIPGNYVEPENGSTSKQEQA

T20: Boi1, P38041
T20 sequence (P38041 1-86, looked up): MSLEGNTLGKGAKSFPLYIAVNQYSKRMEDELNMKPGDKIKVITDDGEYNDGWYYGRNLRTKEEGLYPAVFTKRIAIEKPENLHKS

T21: Bzz1-1, P38822
T21 sequence (P38822 478-572, looked up): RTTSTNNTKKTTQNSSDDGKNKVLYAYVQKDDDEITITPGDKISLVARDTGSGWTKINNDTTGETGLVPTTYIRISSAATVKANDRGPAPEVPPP

B1: unnamed (peptide)
chain: PSPSSSPPPIPKTAN
B2: unnamed (peptide)
chain: VPPVPLPFGIPPFPM
B3: unnamed (peptide)
chain: ISPPASPPPEFDFSK
B4: unnamed (peptide)
chain: PIVPSSPAPPLPLSG
B5: unnamed (peptide)
chain: QPPLPSSAPPIPTSH
B6: unnamed (peptide)
chain: PPIPIVPSSPAPPLP

The binders below were run against T1, Hof1, Q05080 (assay: SPOT array). Conditions: median of control spots 4086.

Binder	SPOT intensity
B1	0
B2	84
B3	0
B4	0
B5	0
B6	0

Each binder was assayed against Bem1-1, P29366 (assay: SPOT array). Conditions: median of control spots 4282.
Bem1-1, P29366, sequence (P29366 55-141): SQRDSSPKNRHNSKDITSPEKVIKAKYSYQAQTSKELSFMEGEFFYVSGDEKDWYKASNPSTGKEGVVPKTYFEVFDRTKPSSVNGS

Binder	SPOT intensity
B1	1
B2	0
B3	0
B4	0
B5	0
B6	0

What follows are binders tested against T2, Sla1-3, P32790 (assay: SPOT array). Conditions: median of control spots 5475.

Binder	SPOT intensity
B1	0
B2	0
B3	0
B4	0
B5	0
B6	0

These binders were tested against T3, Nbp2, Q12163 (assay: SPOT array). Conditions: median of control spots 357.

Binder	SPOT intensity
B1	0
B2	1
B3	0
B4	0
B5	0
B6	0

What follows are binders tested against Bem1-2, P29366 (assay: SPOT array). Conditions: median of control spots 4347.
Bem1-2, P29366, sequence (P29366 139-227): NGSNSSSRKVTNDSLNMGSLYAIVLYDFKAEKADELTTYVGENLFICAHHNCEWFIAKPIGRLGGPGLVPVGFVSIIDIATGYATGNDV

Binder	SPOT intensity
B1	0
B2	2
B3	0
B4	0
B5	1
B6	0

What follows are binders tested against T4, Cdc25, P04821 (assay: SPOT array). Conditions: median of control spots 969.

Binder	SPOT intensity
B1	1
B2	8
B3	0
B4	0
B5	0
B6	0

The binders below were run against T5, Lsb4, P32793 (assay: SPOT array). Conditions: median of control spots 397.

Binder	SPOT intensity
B1	0
B2	16
B3	0
B4	0
B5	0
B6	0

The binders below were run against T6, Bzz1-2, P38822 (assay: SPOT array). Conditions: median of control spots 4538.

Binder	SPOT intensity
B1	3
B2	0
B3	0
B4	0
B5	0
B6	0

The binders below were run against T7, Hse1, P38753 (assay: SPOT array). Conditions: median of control spots 1727.

Binder	SPOT intensity
B1	0
B2	0
B3	0
B4	0
B5	0
B6	0

The binders below were run against T8, Bbc1, P47068 (assay: SPOT array). Conditions: median of control spots 796.

Binder	SPOT intensity
B1	0
B2	3
B3	0
B4	0
B5	0
B6	0

These binders were tested against T9, Myo5, Q04439 (assay: SPOT array). Conditions: median of control spots 471.

Binder	SPOT intensity
B1	300
B2	207
B3	91
B4	434
B5	242
B6	318

These binders were tested against Myo3, P36006 (assay: SPOT array). Conditions: median of control spots 468.

Binder	SPOT intensity
B1	413
B2	341
B3	233
B4	399
B5	334
B6	425

The binders below were run against Sho1, P40073 (assay: SPOT array). Conditions: median of control spots 1148.
Sho1, P40073, sequence (P40073 287-367): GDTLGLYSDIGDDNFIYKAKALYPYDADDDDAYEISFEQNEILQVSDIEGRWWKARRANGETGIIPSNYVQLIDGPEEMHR

Binder	SPOT intensity
B1	0
B2	6
B3	0
B4	0
B5	0
B6	0

Each binder was assayed against T10, Cyk3, Q07533 (assay: SPOT array). Conditions: median of control spots 1451.

Binder	SPOT intensity
B1	0
B2	2
B3	1
B4	0
B5	0
B6	0

These binders were tested against GST (assay: SPOT array). Conditions: median of control spots 978.

Binder	SPOT intensity
B1	1
B2	0
B3	0
B4	0
B5	0
B6	0

Each binder was assayed against T11, Pex13, P80667 (assay: SPOT array). Conditions: median of control spots 1341.

Binder	SPOT intensity
B1	0
B2	129
B3	0
B4	0
B5	0
B6	0

These binders were tested against Rvs167, P39743 (assay: SPOT array). Conditions: median of control spots 2707.
Rvs167, P39743, sequence (P39743 419-482): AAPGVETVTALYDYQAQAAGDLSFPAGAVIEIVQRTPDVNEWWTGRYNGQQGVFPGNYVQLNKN

Binder	SPOT intensity
B1	0
B2	0
B3	0
B4	0
B5	0
B6	0

The binders below were run against T12, Bud14, P27637 (assay: SPOT array). Conditions: median of control spots 956.

Binder	SPOT intensity
B1	0
B2	2
B3	0
B4	0
B5	0
B6	0

These binders were tested against T13, Lsb1, P53281 (assay: SPOT array). Conditions: median of control spots 388.

Binder	SPOT intensity
B1	0
B2	6
B3	0
B4	0
B5	0
B6	0

What follows are binders tested against T14, Abp1, P15891 (assay: SPOT array). Conditions: median of control spots 935.

Binder	SPOT intensity
B1	0
B2	25
B3	0
B4	0
B5	0
B6	0

The binders below were run against T15, Fus1, P11710 (assay: SPOT array). Conditions: median of control spots 1200.

Binder	SPOT intensity
B1	0
B2	0
B3	0
B4	1
B5	0
B6	0

These binders were tested against T16, Lsb3, P43603 (assay: SPOT array). Conditions: median of control spots 406.

Binder	SPOT intensity
B1	0
B2	4
B3	0
B4	0
B5	0
B6	0

Each binder was assayed against T17, Pin3, Q06449 (assay: SPOT array). Conditions: median of control spots 2171.

Binder	SPOT intensity
B1	0
B2	63
B3	0
B4	0
B5	0
B6	0

What follows are binders tested against T18, Boi2, P39969 (assay: SPOT array). Conditions: median of control spots 1161.

Binder	SPOT intensity
B1	1
B2	1
B3	0
B4	0
B5	0
B6	0

The binders below were run against T19, Sla1-2, P32790 (assay: SPOT array). Conditions: median of control spots 712.

Binder	SPOT intensity
B1	0
B2	1
B3	0
B4	0
B5	0
B6	0

Each binder was assayed against T20, Boi1, P38041 (assay: SPOT array). Conditions: median of control spots 1162.

Binder	SPOT intensity
B1	1
B2	0
B3	0
B4	0
B5	0
B6	0

What follows are binders tested against T21, Bzz1-1, P38822 (assay: SPOT array). Conditions: median of control spots 4446.

Binder	SPOT intensity
B1	1
B2	2
B3	0
B4	1
B5	0
B6	0
